According to article PMC10466376:

Assays:
Assay in all cases: potentiometry
[1] = target: Cterm15 (position 15, SKGHFH-----); conditions: 298 K; 0.1 M NaClO4; none (4 mM HClO4 / 100 mM NaClO4); metal-free peptide, 0.5 mM, disordered
[2] = target: Glu3 (position 3, ---KQEGRDHD); conditions: 298 K; 0.1 M NaClO4; none (4 mM HClO4 / 100 mM NaClO4); metal-free peptide, 0.5 mM, disordered
[3] = target: Lys1 (position 1, -----KQEGRD); conditions: 298 K; 0.1 M NaClO4; none (4 mM HClO4 / 100 mM NaClO4); Zn(II)-bound peptide, mononuclear complex, Zn:peptide 1:1 (supplement captions state 0.9:1), peptide 0.5 mM
Lys11 (position 11, …-) = conditions: 298 K; 0.1 M NaClO4; none (4 mM HClO4 / 100 mM NaClO4); Zn(II)-bound peptide, mononuclear complex, Zn:peptide 1:1 (supplement captions state 0.9:1), peptide 0.5 mM
Lys9 (position 9, …) = conditions: 298 K; 0.1 M NaClO4; none (4 mM HClO4 / 100 mM NaClO4); Zn(II)-bound peptide, mononuclear complex, Zn:peptide 1:1 (supplement captions state 0.9:1), peptide 0.5 mM
[4] = target: Nterm1 (position 1, -----KQEGRD); conditions: 298 K, 0.1 M NaClO4, none (4 mM HClO4 / 100 mM NaClO4)
[5] = target: Cterm29 (position 29, KGGKAH-----); conditions: 298 K; 0.1 M NaClO4; none (4 mM HClO4 / 100 mM NaClO4); metal-free peptide, 0.5 mM, disordered
Glu5 (position 5, -…) = conditions: 298 K; 0.1 M NaClO4; none (4 mM HClO4 / 100 mM NaClO4); metal-free peptide, 0.5 mM, disordered
[6] = target: Nterm1 (position 1, -----HNKQEG); conditions: 298 K; 0.1 M NaClO4; none (4 mM HClO4 / 100 mM NaClO4); metal-free peptide, 0.5 mM, disordered
[7] = metal-free peptide, 0.5 mM, disordered

B1: Sg-15, 15-residue fragment common to semenogelin I and semenogelin II (Homo sapiens) (peptide)
chain: KQEGRDHDKSKGHFH
Protein B1 has a pKa [1] of 2.34, a pKa [2] of 4.36 and a pKa [3] of 9.52. The pKa (Lys11 (position 11, …-)) was 10.59, the pKa (Lys9 (position 9, …)) was 10.40 and the pKa ([4]; Cu(II)-bound peptide, mononuclear complex, Cu:peptide 1:1 (supplement captions state 0.9:1), peptide 0.5 mM) was 6.82. The pKa ([4]; Zn(II)-bound peptide, mononuclear complex, Zn:peptide 1:1 (supplement captions state 0.9:1), peptide 0.5 mM) was 6.88 and the pKa [4, 7] was 7.58.

B2: SgIIA (SgII peptide A), 29-residue fragment of semenogelin II (Homo sapiens) (peptide)
chain: KQEGRDHDKSKGHFHMIVIHHKGGQAHHG
Work on B2 yielded a pKa [2] of 4.26 and a pKa [4, 7] of 9.47.

B3: SgI-29, 29-residue fragment of semenogelin I (Homo sapiens) (peptide)
chain: HNKQEGRDHDKSKGHFHRVVIHHKGGKAH
In the case of B3, the pKa [5] is reported as 2.18, the pKa (Glu5 (position 5, -…)) is reported as 3.74 and the pKa [6] is reported as 9.45.
